Measured values published in patent US20170183660, “APTAMER TARGETING MAGE-A3 PEPTIDE AND USES THEREOF” (Academia Sinica, published 2017).

What was measured:
[1] = target: T1, NY-ESO-1 peptide 157-170 (UniProt P78358 P78358:157-170); assay: pulldown; specificity control peptide; details: protein: synthetic; tags: peptide (synthetic, inferred), streptavidin beads
T1 chain: SLLMWITQCFLPVF

[2] = target: T2, NY-ESO-1 peptide 87-111 (UniProt P78358 P78358:87-111); assay: pulldown; specificity control peptide; details: protein: synthetic; tags: peptide (synthetic, inferred), streptavidin beads
T2 chain: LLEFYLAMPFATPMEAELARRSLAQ

[3] = target: NY-ESO-1 peptide 119-143 (UniProt P78358 P78358:119-143); assay: pulldown; specificity control peptide; details: protein: synthetic; tags: peptide (synthetic, inferred), streptavidin beads
[4] = target: T3, MAGE-A3 peptide 111-125 (unmodified) (UniProt P43357); assay: ITC; 25 C, DPBS with 0.45% glucose, 5 mM MgCl2; dH -24 kcal/mol; details: protein: synthetic; tags: none; peptide (synthetic, inferred)
T3 chain: RKVAELVHFLLLKYR
Protocol: (§1) Thermodynamic profile of the interaction between DNA and peptide was measured with a MicroCal iTC₂₀₀ (GE Healthcare Life Sciences) at 25° C. in washing buffer (0.45% glucose, 5 mM MgCl₂, in Dulbecco's Phosphate-Buffered Saline). The unmodified MAGE-A3₁₁₁₋₁₂₅ peptide (0.3 mM, 200 μl) was titrated with 18 successive injections of 2 μl aptamer (0.1 mM) at 150 s intervals. The data were analyzed using MicroCal Origin 7 and fit with a one-set-of sites binding model to obtain values of enthalpy change (AH) and association constant (Kₐ).

[5] = target: T3, MAGE-A3 peptide 111-125 (unmodified); assay: ITC; 25 C, DPBS with 0.45% glucose, 5 mM MgCl2; dH -41 kcal/mol; details: protein: synthetic; tags: none; peptide (synthetic, inferred)
Protocol: as §1

B1: Ap52 (ssDNA)
DNA: ATCCAGAGTGACGCAGCAAGCACTCAATATTCCCTGGACACGGTGGCTTAGT
Q: Which results are given for B1?
A: binding result [1]: no binding; binding result [2]: no binding; binding result [3]: no binding; Kd [4]: 57 nM

Q: AGCACTCAATATTCCC (ssDNA) [Ap16] was tested. Which Kd [5] did it give?
A: 95 nM
